B1: human AQP2-TEV-GFP-His10 fusion (natural protein, UniProt P41181 1-271, looked up)
chain: MWELRSIAFSRAVFAEFLATLLFVFFGLGSALNWPQALPSVLQIAMAFGLGIGTLVQALGHISGAHINPAVTVACLVGCHVSVLRAAFYVAAQLLGAVAGAALLHEITPADIRGDLAVNALSNSTTAGQAVTVELFLTLQLVLCIFASTDERRGENPGTPALSIGFSVALGHLLGIHYTGCSMNPARSLAPAVVTGKFDDHWVFWIGPLVGAILGSLLYNYVLFPPAKSLSERLAVLKGLEPDTDWEEREVRRRQSVELHSPQSLPRGTKA
notes: Aquaporin 2, human, cDNA codon optimized for S. cerevisiae; primers run from the start codon to the last codon; also called AQP2-GFP; APQ2-GFP; not shown: TEV cleavage site, C-terminal, kept; yeGFP, C-terminal, kept; His10, C-terminal, kept
B2: human AQP6-TEV-GFP-His10 fusion (natural protein, UniProt Q13520 1-282, looked up)
chain: MDAVEPGGRGWASMLACRLWKAISRALFAEFLATGLYVFFGVGSVMRWPTALPSVLQIAITFNLVTAMAVQVTWKASGAHANPAVTLAFLVGSHISLPRAVAYVAAQLVGATVGAALLYGVMPGDIRETLGINVVRNSVSTGQAVAVELLLTLQLVLCVFASTDSRQTSGSPATMIGISVALGHLIGIHFTGCSMNPARSFGPAIIIGKFTVHWVFWVGPLMGALLASLIYNFVLFPDTKTLAQRLAILTGTVEVGTGAGAGAEPLKKESQPGSGAVEMESV
notes: Aquaporin 6, human, cDNA codon optimized for S. cerevisiae; primers run from the start codon to the last codon; also called AQP6-GFP; Aquaporin 6; not shown: TEV cleavage site, C-terminal, kept; yeGFP, C-terminal, kept; His10, C-terminal, kept
B3: human AQP9-TEV-GFP-His10 fusion (natural protein, UniProt O43315 1-295, looked up)
chain: MQPEGAEKGKSFKQRLVLKSSLAKETLSEFLGTFILIVLGCGCVAQAILSRGRFGGVITINVGFSMAVAMAIYVAGGVSGGHINPAVSLAMCLFGRMKWFKLPFYVGAQFLGAFVGAATVFGIYYDGLMSFAGGKLLIVGENATAHIFATYPAPYLSLANAFADQVVATMILLIIVFAIFDSRNLGAPRGLEPIAIGLLIIVIASSLGLNSGCAMNPARDLSPRLFTALAGWGFEVFRAGNNFWWIPVVGPLVGAVIGGLIYVLVIEIHHPEPDSVFKTEQSEDKPEKYELSVIM
notes: Aquaporin 9, human, cDNA codon optimized for S. cerevisiae; primers run from the start codon to the last codon; also called AQP9-GFP; Aquaporin 9; not shown: TEV cleavage site, C-terminal, kept; yeGFP, C-terminal, kept; His10, C-terminal, kept

Target: the molecule itself
Experiment: SDS-PAGE (SDS-resistant oligomers); peak fractions of Ni-affinity purified, detergent solubilised AQP-TEV-GFP-His10 fusions separated by SDS-PAGE; in-gel fluorescence and Coomassie staining

Binding result, binds:
B1
B2
B3

Source: article PMC5715081, “Purification and functional comparison of nine human Aquaporins produced in Saccharomyces cerevisiae for the purpose of biophysical characterization” (Scientific Reports, 2017)
